Measurements reported in publication doi:10.1101/2020.09.17.302455.

Target: human plasma fibronectin (human)
Test: ELISA

percent of BMP2 absorbed: 70 to 80%
B1: bone morphogenetic protein 2 (ligand)
chain: QAKHKQRKRLKSSCKRHPLYVDFSDVGWNDWIVAPPGYHAFYCHGECPFPLADHLNSTNHAIVQTLVNSVNSKIPKACCVPTELSAISMLYLDENEKVVLKNYQDMVVEGCGCR
